Legend:
Assay type in all cases: biochemical
Conditions in all cases: purified CHI in 50 mM PBS, 100 μM substrate, 25° C.
[1] = Specific activity of purified CHI, absorbance decrease at 384 nm, naringenin chalcone
Description: (§1) E. coli BL21 (DE3) cells containing one of the pET28b plasmids from Table 2 or Table 3 were used to inoculate 1 L LB medium at OD of 0.1. Cells were incubated at 37° C., 250 rpm until the OD reached 0.4-0.6 and induced by supplementing with 0.1 mM IPTG. After protein expression at 28° C., 250 rpm for 16 h, the cells were harvested by centrifugation at 4,000×g for 15 min. The harvested cells were lysed with 0.5 mg/mL lysozyme (Sigma-Aldrich), 0.4 U/mL Benzonase (Sigma-Aldrich) and BugBuster (Merck) at room temperature for 0.5 h to obtain a crude cell extract. The crude extract was centrifuged at 10,000×g for 30 min to remove the pellet. Recombinant proteins were purified by Ni-affinity chromatography (GE Healthcare). The supernatant of the crude extract was loaded on the column with 20 mM imidazole. The column was washed by 5 column volumes of 30 mM imidazole with 20 mM PBS (pH 7.4) and 500 mM NaCl. The target proteins were eluted by 150 mM imidazole with 20 mM PBS (pH 7.4) and 500 mM NaCl. Buffer exchange with 50 mM PBS (pH 7.5) was achieved by ultrafiltration with Amicon Ultra-15 (Merck). The activity of the respective purified enzyme was determined by measuring the absorbance decrease at 384 nm in the reaction mix (CHI in 50 mM PBS with 100 μM of either naringenin chalcone, hesperetin chalcone, eriodictyol chalcone, homoeriodictyol chalcone or 4-O-methyl butein at 25° C.).

[2] = Specific activity of purified CHI, absorbance decrease at 384 nm, eriodictyol chalcone
Description: as §1

[3] = Specific activity of purified CHI, absorbance decrease at 384 nm, homoeriodictyol chalcone
Description: as §1

[4] = Specific activity of purified CHI, absorbance decrease at 384 nm, hesperetin chalcone
Description: as §1

Molecule	Specific activity, Naringenin chalcone [1]	Specific activity, Eriodictyol chalcone [2]	Specific activity, Homoeriodctiol chalcone [3]	Specific activity, Hesperetin chalcone [4]
CHI14: Chalcone isomerase from Butyrivibrio sp. AC2005, access no. WP_026657636.1 (protein, Butyrivibrio sp. AC2005) AYEFNLMRSLIYVGLAKEEYRAKLEHWLYNHHVPESISKFSPYVTKYAFYQAYPTPPEGDRFGARKMQLTEHYWLVNEHLPEMANNIFQEFMPMDVLRWQGCIPDVDSATVHDNAESGDAGRAVGGGDFPPFIFAFVPINWEEDFKGKERTPVNGPNFRWQFLIQYPEGCSKDEGERWFHEEVVPFLTGSVRVNRLVSSKVKVNYGAPSAQFDRLVEVWFDGPEEWYDLCVNLAKDKLKKPEWAQQDTFPFLKPQHNIASMFLGDRCTSDNLTQYRGFITMR	45.9	50.4	28.8	2.1
CHI13: Chalcone isomerase from Lactobacillus sp. 54-2, access no. WP_125715151.1 (protein, Lactobacillus sp. 54-2) SFEFRPMRSVIYVDVIKEKYRPKLLHWLYGHHIQDSISKFGPYVTKYAFYNAFPVPPEGERFGTRRMQMTEHYWLINEMTPEMKNNAITEYMPKDVLRWQGNIPDTDAAAAGNVDGDTGRSAGGANGCQPFVFAHVPINWEEDYKGDGRMVADGPNYRWQFVIKYPENLTEAAGEAWFHDEVVPYFKGRPEVHRFMSSRIMQDVVGCEFERLVEMWFDSEDEWYTAAVAGTTALKKPSWAQQNQFPFLTPQFNIVGMFLPDIPTSDNLAQYRGYITMR	32.7	66.2	21.7	2.0
CHI10: Chalcone isomerase from Clostridium sp. SY8519, access no. WP_013977558.1 (protein, Clostridium sp. SY8519) ADFEFNPMRSLIYIDCVKNDYRHKLQYWLYKHHIPDSIAKFEPYVSKYAFYSALPVPEDGEEFGTYNYQLTEHYWLCNPLTADFAVNSLQESFTPDVLKWQGIIPDIDITPEMMAAMQNADDARASEGSEAPGFDLPPFIFAFLPLSWEFQTKGEKLTIEDGPNYRWQFLVKYPEAADAEQADKWLMEEVIPAFAQMDEVKRILSSKVKQEVNGCVYYRVVEMWFDSPSDWHRAVKEKTGAISKPEWASTDSFPYLRPKHEMASIFLSDIPTTDNLLQYRGFIPMR	0.7	2.5	0.2	1.2
CHIera Mut2: Chalcone isomerase variant 2 from Eubacterium ramulus, genetically engineered (protein, listed as Eubacterium ramulus) MADFKFEPMRSLIYVDCVSEDYRPKLQRWIYKVHIPDSISQFEPYVTKYAFYPSFPIPPQGDRFGYARMQLTEHHWLVSPLDPRLEIKAIAETFPMDVLVWQGQIPAAAHTDAQIDSDGDAGRAAGKSNNAEGNPFIFAFLPMWWEKDLKGKGRTIEDGANYRFNMTIGFPEGVDKAEGEKWLFEKVVPILQAAPECTRVLASAVKKDINGCVMDWVLEIWFENQSGWYKVMVDDMKALEKPSWAQQDAFPFLKPYHNVCSAAVADYTPSNNLANYRGYITMR	4.4	8.3	3.5	11.5
CHIera Mut4: Chalcone isomerase variant 4 from Eubacterium ramulus, genetically engineered (protein, listed as Eubacterium ramulus) MADFKFEPMRSLIYVDCVSEDYRPKLQRWIYKVHIPDSISQFEPYVTKYAFYPSFPIPPQGDRFGYARMQLTEHHWLVSELDPRLEIKAIAETFPMDVLVWQGQIPAAAHTDAQIDSDGDAGRAAKKSNNAEGNPFIFAFLPMWWEKDLKGKGRTIEDGANYRFNMTIGFPEGVDKAEGEKWLFEKVVPILQAAPECTRVLASAVKKDINGCVMDWVLEIWFENQSGWYKVMVDDMKALEKPSWAQQDAFPFLKPYHNVCSAAVADYTPSNNLANYRGYITMR	2.3	8.9	4.8	4.7
CHIera Mut7: Chalcone isomerase variant 7 from Eubacterium ramulus, genetically engineered (protein, listed as Eubacterium ramulus) MADFKFEPMRSLIYVDCVSEDYRPKLQRWIYKVHIPDSISTFEPYVTKYAFYPSFPIPPQGDRFGYARMQLTEHHWLVSELDPRLEIRAIAETFPMDVLVWQGQIPAAAHTDAQIDSDGDAGDAARKSNNAEGNPFIFAFLPMWWEKDLKGKGRTIEDGANYRFNMTIGFPEGVDKAEGEKWLFEKVVPILQAAPECTRVLASAVKKDINGCVMDWVLEIWFENQSGWYKVMVDDMKALEKPSWAQQDAFPFLKPYHNVCSAAVADYTPSNNLANYRGYITMR	61.4	181.3	62.2	28.4
CHI11: Chalcone isomerase from Eubacterium sp., access no. SCK02381.1 (protein, Eubacterium sp) TKNMLGFEPMRSLIYVDVAKEDYRVKLENWLYKYHIPDSISQFGPYVSKYAFYQALPVPEGGERFGAIKMQLTEHYWLANPNNIAQFDHHKALTEYFPPDVLKWQGNLPDEDFQCENVEGDEARAVKGDASKGTVPFIFAFVPVWWEEDYKGAGRTIEDGPNYRWQMVIKFPDDAKDTGDKWLRDEFIPAFVECEETTRILSSKVIKEANGCEFDRVVEMWFEGPSAWKAAVGKAAKKVRRPAWFETEDFPYLTQSYGISSIFLSDIARSDNMTQYNGYVTMR	23.2	10.8	11.4	5.8
CHI15: Chalcone isomerase from Clostridioides difficile, access no. WP_095917646.1 (protein, Clostridioides difficile) ADFEFKIMRSLIYVGLAKEEYRPKLMDWLYRHHIPDSISTFGPYCTKYAFYQAYPTPNEGERFGARKMQLTEHYWLVDEHMPEMANRIMTEYMPMDVLRWQGCIPDVENKRVHENVESGDAGRAVGGDNGCPPFIFAFVPINWEEDFRGKGRTVQDGPNYRWQFMIKYPDGISKEEGEKWFYDEVVPYFTNCCYVNRFVSSKIMINYGATAFDRVSELWFEGEEEWYKAVVEETKSFIKKPEWAQEEEFPYLKPQFNIASVFLGDIATMDAYSQYRGYIPMR	14.5	11.7	2.2	1.3
CHI7: Chalcone isomerase from Clostridium sp. SY8519, access no. WP_013978403.1 (protein, Clostridium sp. SY8519) ADFKFEPMRSFIYVNCAKEDYRPKLQRWLYKTHVPDSIGQFEPYVTKYAFYPSFPTPPEGERFGYCSMQLTEHHWMVSDFDERLGIKAIAETFPPEVLLWQGNITEGMLEAMKKNGGAPGDDGGDSGNEARSTNMEGANPFIFCFAPYWWEDDIKGKGRTIEDGANYRWNVAIGYPEGVSAEEGDRWLFEEVIPVFEAAPECTRILHSKVKKEINGGSGMEHILEFWFENQSGWYQTAVEATKTLKKPAWAQQDQFPFLKPYHKFISVAVADFTMANNLVNYHGYIPRR	68.3	123.6	50.2	6.4
CHI3: Chalcone isomerase from Clostridium sp. JN500901, access no. WP_119972745.1 (protein, Clostridium sp. JN500901) SIEFKPMRSLIYVDVVKEDYRHMLKHWLYYHHIPDSISQFGPYVTKYAFYPALPTPPDGERFGTHRMQLTEHYWLVNPLTPEFKNKTMTEYFPVDVLKWQGNVPDDNEVAILEGKETEKVESGDAARSTGGDNGMPPFIWAFVPISWEEDLKGEGRSMEDGPNYRWQFVMKYPDGVPMEEGDKWFYKEVIPKFQDSPDVTRILTSKIIQNINDCPYQRIVEMWFNCPSGWHRAAVEKAREIKKPSWAKYDEFPYLKPKFEISSLFLTDIAESDNYTQYRGFIPMR	20.0	13.2	7.8	12.8
